Experimental findings from patent US20200149062 are described below.

The test system of data set [1] is WT-TSC2-FLAG.
The test system of data set [2] is TSC2-FLAG SA (S1365A).

Chain of ERK2 (P28482 2-360): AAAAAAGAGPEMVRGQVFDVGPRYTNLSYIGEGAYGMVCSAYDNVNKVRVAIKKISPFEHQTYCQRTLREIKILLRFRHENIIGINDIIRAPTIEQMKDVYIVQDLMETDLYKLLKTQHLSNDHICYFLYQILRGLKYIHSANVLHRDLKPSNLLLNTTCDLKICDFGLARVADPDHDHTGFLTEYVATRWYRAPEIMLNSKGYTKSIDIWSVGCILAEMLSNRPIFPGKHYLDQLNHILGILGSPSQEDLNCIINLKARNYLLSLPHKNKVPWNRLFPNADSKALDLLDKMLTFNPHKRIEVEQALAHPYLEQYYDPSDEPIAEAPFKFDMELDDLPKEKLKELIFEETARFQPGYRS

ERK2: the “TSC2 radiolabeling with [gamma-33P]-ATP (in vitro kinase assay on FLAG-immune-precipitate)” value in data set [1] is on record as “ERK2-TSC2 phosphorylation served as a positive control”. Regarding modified PKG (M438G), the “thiophosphate ester labeling of TSC2” value in data set [2] is “both radioactive or thiophosphate ester labeling of TSC2 was also seen when SA TSC2 was used”. On to recombinant PKG (purified active PKG), for which the “radioactive labeling of TSC2 ([gamma-33P]-ATP, autoradiography)” value in data set [2] is “both radioactive or thiophosphate ester labeling of TSC2 was also seen when SA TSC2 was used”.
